Source: paper PMC3621757, “Structural Plasticity in Human Heterochromatin Protein 1β” (PLoS ONE, 2013)

Target: the molecule itself
Test: small angle X-ray scattering (SAXS); hHP1β (2–185) at 1.0, 2.0 and 5.0 mg/mL, 283 K; 20 mM sodium phosphate pH 6.5, 50 mM NaCl, 2 mM DTT; MW from forward scattering against bovine serum albumin

B1: full-length human Heterochromatin Protein 1β, hHP1β (2–185) (natural protein)
chain: not shown
notes: The His-tag is TEV-protease-cleavable; NMR samples were 15N-perdeuterated; also called full-length hHP1β; source: pET16b expression vector (Novagen); additional size-exclusion chromatography on Superdex200 for SAXS and DLS samples
stoichiometry N: 2
